By EC50 is commonly meant the concentration needed to bring the measured effect to its halfway point. A higher EC50 goes with lower potency in that assay.

The target of the assay is T1, human CD19 (human, UniProt P15391 20-556).
T1 construct: CD19 on B cells of healthy subjects and patients (receptor occupancy in clinical studies); also called human B-cell restricted surface antigen CD19
T1 sequence: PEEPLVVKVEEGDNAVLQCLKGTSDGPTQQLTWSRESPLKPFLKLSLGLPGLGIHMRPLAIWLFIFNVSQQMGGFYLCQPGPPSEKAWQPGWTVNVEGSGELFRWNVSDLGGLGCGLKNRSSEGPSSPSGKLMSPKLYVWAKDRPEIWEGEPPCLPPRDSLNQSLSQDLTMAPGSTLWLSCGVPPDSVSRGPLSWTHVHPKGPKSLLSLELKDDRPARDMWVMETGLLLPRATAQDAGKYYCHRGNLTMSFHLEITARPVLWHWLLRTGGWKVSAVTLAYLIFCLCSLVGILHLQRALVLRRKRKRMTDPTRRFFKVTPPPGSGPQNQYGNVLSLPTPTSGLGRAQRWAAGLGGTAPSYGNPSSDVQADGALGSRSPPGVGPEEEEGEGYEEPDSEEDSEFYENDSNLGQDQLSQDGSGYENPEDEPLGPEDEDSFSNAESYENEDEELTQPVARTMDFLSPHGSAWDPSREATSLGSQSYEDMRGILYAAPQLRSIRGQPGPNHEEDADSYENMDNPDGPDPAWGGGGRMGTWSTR
Description: population PK/PD model of CD19 receptor occupancy (direct response, sigmoidal Emax) against plasma obexelimab concentration, fitted to data of 4 clinical studies (healthy subjects, RA and IgG4-RD patients); in vivo plasma concentration for half-maximal CD19 receptor occupancy, population PK/PD model fit.

B1: Obexelimab (antibody, human IgG1, kappa, V domains shown)
VH: EVQLVESGGGLVKPGGSLKLSCAASGYTFTSYVMHWVRQAPGKGLEWIGYINPYNDGTKYNEKFQGRVTISSDKSISTAYMELSSLRSEDTAMYYCARGTYYYGTRVFDYWGQGTLVTVSS
VL: DIVMTQSPATLSLSPGERATLSCRSSKSLQNVNGNTYLYWFQQKPGQSPQLLIYRMSNLNSGVPDRFSGSGSGTEFTLTISSLEPEDFAVYYCMQHLEYPITFGAGTKLEIKR
notes: Humanized IgG1 kappa; also called XmAb5871; anti-CD19 antibody
B1 gave an EC50 of 0.0745 µg/mL.
